# According to patent US20180021429A1 (PHARMA FOODS INTERNATIONAL, published 2018):
# Residue numbers refer to the chain shown, from its start.
# T1: human FSTL1 (construct not stated) (human, UniProt Q12841 21-308)
# T1 construct: also called human FSTL1 antigen; FSTL1 (R&D Systems, Inc. Cat#1694-FN-050)
# T1 sequence: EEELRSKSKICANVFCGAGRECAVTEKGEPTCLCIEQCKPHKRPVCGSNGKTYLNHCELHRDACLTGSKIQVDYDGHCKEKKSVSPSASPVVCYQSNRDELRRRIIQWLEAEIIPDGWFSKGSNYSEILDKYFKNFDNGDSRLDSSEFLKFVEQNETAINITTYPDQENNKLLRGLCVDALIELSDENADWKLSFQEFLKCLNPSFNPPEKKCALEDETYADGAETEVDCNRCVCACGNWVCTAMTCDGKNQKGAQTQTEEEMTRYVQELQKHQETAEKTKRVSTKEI
# T2: His-tagged mouse FSTL1 (amino acid sequence of mouse FSTL1 used in Examples, SEQ ID NO: 72) (mouse, UniProt Q62356 19-306)
# T2 sequence: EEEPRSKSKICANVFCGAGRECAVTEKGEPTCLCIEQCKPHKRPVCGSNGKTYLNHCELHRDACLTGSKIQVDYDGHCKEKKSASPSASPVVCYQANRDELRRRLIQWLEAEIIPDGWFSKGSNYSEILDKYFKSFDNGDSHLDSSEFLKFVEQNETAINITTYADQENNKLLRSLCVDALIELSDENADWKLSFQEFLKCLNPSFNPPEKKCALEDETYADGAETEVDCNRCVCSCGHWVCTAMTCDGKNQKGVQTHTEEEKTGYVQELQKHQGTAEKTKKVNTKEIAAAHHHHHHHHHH
# B1: anti-FSTL1 antibody clone #33 (chicken-mouse chimeric antibody) (antibody, mouse IgG1, kappa, V domains shown)
# VH: AVTLDESGGGLQTPGGGLSLVCKASGFTFSSFNMNWVRQAPGKGLEYVAEISGTGSSTYYGSAVKGRATISRDNGQSTVRLQLNNLRAEDTATYFCARGDGAYSIDAWGHGTEVIVSS
# VL: ASTQPSSVSANPGETVEITCSGDSSYYGWFQQKSPGSAPVTVIYDNTNRPSDIPSRFSGSKSGSTATLTITGVRAEDEAVYYCGGYDSSTYDGIFGAGTTLTVLG
# B2: anti-FSTL1 antibody clone #8-7 (chicken-mouse chimeric antibody) (antibody, mouse IgG1, kappa, V domains shown)
# VH: AVTLDESGGGLQTPGGGLSLVCKGSGFTFSSFNMFWVRQAPGKGLEWVAGIGKDGVPKYGAAVDGRATISKDNGQSTLRLQLNNLRAEDTGTYFCAKAAGGCSYDWCGIYAGDIDTWGHGTEVIVSS
# VL: ASTQPSSVSANPGEAVKITCSGGSGSYYGWYQQKSPGSAPVTVIYNNNQRPSDIPSRFSGSKSGSTATLTITGVQAEDEAVYFCGGYDSSTGHGGIFGAGTTLTVLG
# B3: anti-FSTL1 antibody clone #5-3 (chicken-mouse chimeric antibody) (antibody, mouse IgG1, kappa, V domains shown)
# VH: B2 VH with G17A, T28S, L78M
# VL: ASTQPSSVSANPGETVKITCSGGSGYYYGWYQQKSPGSVPVTVIYNNNNRPSDIPSRFSGSKSGSTGTLTITGVRAEDEAVYYCGGYDNSGTGIFGAGTTLTVLG
# B4: anti-FSTL1 antibody clone #5-2 (chicken-mouse chimeric antibody) (antibody, mouse IgG1, kappa, V domains shown)
# VH: B2 VH with I51V, V56G, P57T, K58G, F94Y, D105G, I109S, A111V, T116A
# VL: B2 VL
# B5: anti-FSTL1 antibody clone #8-8 (chicken-mouse chimeric antibody) (antibody, mouse IgG1, kappa, V domains shown)
# VH: B2 VH with G17A, L78M, F94Y, D105G, I109A, A111T
# VL: B2 VL with A76V
# B6: anti-FSTL1 antibody clone #5-43 (chicken-mouse chimeric antibody) (antibody, mouse IgG1, kappa, V domains shown)
# VH: B2 VH with V56G, P57T, K58G, N73S, F94Y, I109A, A111T
# VL: B2 VL
# B7: anti-FSTL1 antibody clone #5-8 (chicken-mouse chimeric antibody) (antibody, mouse IgG1, kappa, V domains shown)
# VH: B2 VH with A61T, L78M, A111T
# VL: B2 VL
# B8: anti-FSTL1 antibody clone #8-1 (chicken-mouse chimeric antibody) (antibody, mouse IgG1, kappa, V domains shown)
# VH: B2 VH with G17A, L78M
# VL: B2 VL with T91S
# B9: anti-FSTL1 antibody clone #5-10 (chicken-mouse chimeric antibody) (antibody, mouse IgG1, V domains shown)
# VH: AVTLDESGGGLQTPGGGLSLVCKGSGFTLSSFNMFWVRQAPGKGLEWVAGVGKDGGTTYGAAVDGRATISRDSGQSTVRLQLNDLRAEDTGTYFCAKAAGGCSYSWCGAYVGDLDAWGHGTEVIVSS
# VL: ASTQPSSVSANPGETVKITCSGGGSYVGSYYYGWYQQKSPGSAPVTVIYNNNQRPSDIPSRFSGSKSGSTATLTITGVQAEDEAVYFCGGYDSSAGGIFGAGTTLTVLG
# B10: anti-FSTL1 antibody clone #13 (chicken-mouse chimeric antibody) (antibody, mouse IgG1, kappa, V domains shown)
# VH: AVTLDESGGGLQTPGGGLSLVCKASGFTFSSVTMQWVRQAPGKGLEWVASICSGSSTYYGPAVKGRATISRDNGQNTVRLQLNNLRAEDTATYYCAKIVGRGRWSCTSAAYNIDAWGHGTEVIVSS
# VL: ASTQPSSVSANPGETVKITCSGGGNNYGWYQQKSPGSAPVTVIYNNNNRPSNIPSRFSGSKSGSTNTLTITGVQAEDEAVYYCGSYDSSSDSGIFGAGTTLTVLG
# B11: anti-FSTL1 antibody clone #6-55 (chicken-mouse chimeric antibody) (antibody, mouse IgG1, kappa, V domains shown)
# VH: AVTLDESGGGLQTPGGALSLVCKGSGFTFTSVTMQWVRQAPGKGLEWVASVCSGSSTYYAPAVKGRATISRDNGQSTVRLQLSNLRPEDTGTYYCAKIAGRARWSCTSAAYNIDAWGHGTEVIVSS
# VL: ASTQPSSVSAIPGETVKITCSGGGNNYGWYQQRSPGSAPVTVIYYNDNRPSNIPSRFSGSTSGSTSTLTITGVQADDEAIYYCGSWDSNTDSGIFGAGTTLTVLG
# notes: also called Anti-FSTL1 mAb (#6-55)
# B12: humanized #6-55 antibody H(3)-L(1) (IgG1 type) (antibody, V domains shown)
# VH: EVQLLESGGGLVQPGGSLRLSCAASGFTFSSVTMQWVRQAPGKGLEFVASVCSGSSTYYAPAVKGRVTISRDNSKNTVYLQMNSLRAEDTAVYYCAKIAGRARWSCTSAAYNIDAWGQGTLVTVSS
# VL: SYELTQPPSVSVSPGQTARITCSGGGNNYGWYQQKPGQAPVTVIYYNDNRPSGIPERFSGSNSGSTTTLTISGVQAEDEADYYCGSWDSNTDSGIFGGGTKLTVLG
# notes: Human IgG1 constant region; expressed in HEK293; also called h#6-55 H(3)-L(1)
# Target: T1, human FSTL1 (construct not stated)
# Test: SPR (Biacore T-200), captured antibody, human FSTL1 10 µg/ml; for Dissociation amount (RU): time not given here
# Method: (§1) The mouse chimeric antibodies were immobilized onto Sensor Chip CM5 (GE Healthcare Japan Corp., BR-1005-30) using Mouse Antibody Capture Kit (GE Healthcare Japan Corp., BR-1008-38), and their affinity for human FSTL1 was calculated using Biacore T-200 (GE Healthcare Japan Corp.).
# (§2) First, the exhaustive activity comparison of the obtained antibodies was conducted with the human FSTL1 concentration fixed to 10 μg/ml (Table 33-1, FIG. 28).
Binding amount (RU),Dissociation amount (RU),Binder
10.9,4.1,B1
12.8,11.8,B2
11,8.8,B3
9.2,7.1,B4
8,4.7,B5
7,3.1,B6
6.7,3.4,B7
11.1,12.3,B8
9.8,12.1,B9
8.7,0.2,B10
11,1.5,B11

# Target: T1, human FSTL1 (construct not stated)
# Test: as above
# Remark: another data set of the same source
# Method: as §1
Binding amount (RU),Dissociation amount (RU),Binder
10.9,4.1,B1
12.8,11.8,B2
11,8.8,B3
9.2,7.1,B4
8,4.7,B5
7,3.1,B6
6.7,3.4,B7
11.1,12.3,B8
9.8,12.1,B9
8.7,0.2,B10
11,1.5,B11

# Target: T1, human FSTL1 (construct not stated)
# Test: as above
# Remark: another data set of the same source
# Method: as §1, §2
Binding amount (RU),Dissociation amount (RU),Binder
10.9,4.1,B1
12.8,11.8,B2
11,8.8,B3
9.2,7.1,B4
8,4.7,B5
7,3.1,B6
6.7,3.4,B7
11.1,12.3,B8
9.8,12.1,B9
8.7,0.2,B10
11,1.5,B11

# Target: T1, human FSTL1 (construct not stated)
# Test: SPR (Biacore T-200), antibody on Human Antibody Capture Kit, human FSTL1 0 to 20 µg/ml
# Method: (§3) Nine IgG1-type humanized antibodies of #6-55 were immobilized onto Sensor Chip CM5 (GE Healthcare Japan Corp., BR-1005-30) using Human Antibody Capture Kit (GE Healthcare Japan Corp., BR-1008-38), and their affinity for human FSTL1 was calculated using Biacore T-200 (GE Healthcare Japan Corp.). […] Among the 9 IgG1-type humanized antibodies of #6-55, a clone composed of a combination “H(2)-L(1)” having a […] KD value was selected as a lead antibody.
row,Kd [nM],Binder
1,26.7,B12

# Target: T2, His-tagged mouse FSTL1 (amino acid …)
# Test: ELISA, mouse FSTL1 coated (FIG. 3B)
row,binding result,Binder
1,binds,B1
2,binds,B8
3,binds,B10
4,binds,B11

row,Binder,binding result
1,B7,no binding (tested: antibody diluted from 100 ng/ml)

# Target: T1, human FSTL1 (construct not stated)
# Test: SPR (Biacore T-200), antibody on Human Antibody Capture Kit, human FSTL1 0 to 20 µg/ml
# Remark: another data set of the same source
# Method: as §3
row,Kd [nM],Binder
1,26.7,B12

# Target: T1, human FSTL1 (construct not stated)
# Test: SPR (Biacore T-200), captured antibody, human FSTL1 10 µg/ml; for Dissociation amount (RU): time not given here
# Remark: another data set of the same source
# Method: as §1, §2
Binding amount (RU),Dissociation amount (RU),Binder
10.9,4.1,B1
12.8,11.8,B2
11,8.8,B3
9.2,7.1,B4
8,4.7,B5
7,3.1,B6
6.7,3.4,B7
11.1,12.3,B8
9.8,12.1,B9
8.7,0.2,B10
11,1.5,B11
